Source: the Immune Epitope Database (IEDB)

Legend:
HLA-B*08:01 [1] = experiment: IEDB peptide-MHC binding, purified MHC/competitive/fluorescence; ≥ and ≤ were set here for values at or beyond the usual limits of such assays
HLA-A*24:02 [2] = experiment: as above
HLA-A*29:02 [3] = experiment: IEDB peptide-MHC binding, purified MHC/competitive/fluorescence; filed as Kd, often an IC50 or EC50 that approximates it; ≥ and ≤ were set here for values at or beyond the usual limits of such assays; conditions: source organism: Human immunodeficiency virus type 1 BH10
HLA-A*01:01 [4] = experiment: as above; conditions: source organism: Human immunodeficiency virus type 1 BH10
HLA-A*80:01 = experiment: IEDB peptide-MHC binding, purified MHC/direct/fluorescence; filed as Kd, often an IC50 or EC50 that approximates it; ≥ and ≤ were set here for values at or beyond the usual limits of such assays; conditions: source organism: Human immunodeficiency virus 1
HLA-B*15:01 [5] = experiment: IEDB peptide-MHC binding, purified MHC/competitive/fluorescence; ≥ and ≤ were set here for values at or beyond the usual limits of such assays; conditions: source organism: Zaire ebolavirus
HLA-A*02:01 [6] = experiment: as above; conditions: source organism: Zaire ebolavirus
HLA-A*24:02 [7] = experiment: IEDB peptide-MHC binding, purified MHC/competitive/fluorescence; filed as Kd, often an IC50 or EC50 that approximates it; ≥ and ≤ were set here for values at or beyond the usual limits of such assays; conditions: source organism: Francisella tularensis subsp. holarctica FSC200
HLA-B*51:01 = experiment: as above; conditions: source organism: Influenza A virus (A/X-31(H3N2))
HLA-B*08:01 [8] = experiment: as above; conditions: source organism: Influenza A virus (A/X-31(H3N2))
HLA-B*15:01 [9] = experiment: IEDB peptide-MHC binding, purified MHC/direct/fluorescence; filed as Kd, often an IC50 or EC50 that approximates it; ≥ and ≤ were set here for values at or beyond the usual limits of such assays
HLA-A*29:02 [10] = experiment: as above; conditions: source organism: Influenza A virus (A/Hong Kong/507/97(H5N1))
HLA-B*58:01 = experiment: as above
HLA-A*11:01 = experiment: as above
HLA-A*01:01 [11] = experiment: as above
HLA-A*03:01 = experiment: as above
HLA-B*18:01 = experiment: as above; conditions: source organism: Influenza A virus (A/Hong Kong/507/97(H5N1))
HLA-B*27:05 = experiment: as above
HLA-B*46:01 = experiment: as above
HLA-B*44:02 = experiment: as above
HLA-A*02:01 [12] = experiment: as above
HLA-B*08:03 = experiment: as above; conditions: source organism: Influenza A virus (A/Taiwan/2/2006(H1N1))
HLA-B*40:01 = experiment: as above
HLA-A*02:03 = experiment: as above; conditions: source organism: Brucella suis ATCC 23445
HLA-A*31:01 = experiment: as above; conditions: source organism: Brucella abortus
HLA-A*02:06 = experiment: as above; conditions: source organism: Brucella suis ATCC 23445
HLA-A*02:12 = experiment: as above; conditions: source organism: Brucella suis ATCC 23445
HLA-B*07:02 = experiment: as above; conditions: source organism: Brucella abortus
HLA-A*02:19 = experiment: as above; conditions: source organism: Brucella suis ATCC 23445
HLA-C*05:01 = experiment: as above; conditions: source organism: Brucella melitensis bv. 1 str. 16M
HLA-A*02:11 = experiment: as above; conditions: source organism: Brucella suis ATCC 23445
[13] = source organism: Vaccinia virus
[14] = source organism: Vaccinia virus Copenhagen
[15] = source organism: Zaire ebolavirus
[16] = source organism: Influenza A virus (A/Hong Kong/507/97(H5N1))
[17] = source organism: Brucella abortus

## FKPPKFRAF
HLA-B*08:01 [1]; [13]
  IC50: ≥ 191 µM
HLA-A*24:02 [2]; [13]
  IC50: 52.6 µM

## FNCGGEFFY
HLA-A*29:02 [3]
  Kd: ≤ 0.0001 µM
HLA-A*01:01 [4]
  Kd: 0.0565 µM
HLA-A*80:01
  Kd: 0.0526 µM

## GNIKHKERI
HLA-B*08:01 [1]; [14]
  IC50: ≥ 199 µM
HLA-A*24:02 [2]; [14]
  IC50: 47.7 µM

## HMMVIFRLM
HLA-B*15:01 [5]
  IC50: ≥ 168 µM
HLA-B*08:01 [1]; [15]
  IC50: ≥ 3440 µM
HLA-A*02:01 [6]
  IC50: 0.176 µM
HLA-A*24:02 [2]; [15]
  IC50: 0.83 µM

## IFIYSFFTW
HLA-A*24:02 [7]
  Kd: 0.0111 µM

## LAKSVFNSL
HLA-B*51:01
  Kd: ≥ 20 µM
HLA-B*08:01 [8]
  Kd: 0.726 µM
HLA-B*15:01 [9]; [16]
  Kd: ≥ 20 µM
HLA-A*29:02 [10]
  Kd: ≥ 20 µM
HLA-B*58:01; [16]
  Kd: ≥ 20 µM
HLA-A*11:01; [16]
  Kd: ≥ 20 µM
HLA-A*01:01 [11]; [16]
  Kd: ≥ 20 µM
HLA-A*03:01; [16]
  Kd: ≥ 20 µM
HLA-B*18:01
  Kd: ≥ 20 µM
HLA-B*27:05; [16]
  Kd: ≥ 20 µM
HLA-B*46:01; [16]
  Kd: ≥ 20 µM
HLA-B*44:02; [16]
  Kd: ≥ 20 µM
HLA-A*02:01 [12]; [16]
  Kd: ≥ 20 µM
HLA-B*08:03
  Kd: 2.13 µM
HLA-B*40:01; [16]
  Kd: ≥ 20 µM

## LSDDSGLMV
HLA-A*02:03
  Kd: 0.42 µM
HLA-B*15:01 [9]; [17]
  Kd: ≥ 20 µM
HLA-A*31:01
  Kd: ≥ 20 µM
HLA-A*02:06
  Kd: 0.062 µM
HLA-A*02:12
  Kd: 1.58 µM
HLA-B*58:01; [17]
  Kd: ≥ 20 µM
HLA-A*11:01; [17]
  Kd: ≥ 20 µM
HLA-B*07:02
  Kd: ≥ 20 µM
HLA-A*02:19
  Kd: ≥ 20 µM
HLA-A*01:01 [11]; [17]
  Kd: 0.0217 µM
HLA-A*03:01; [17]
  Kd: ≥ 20 µM
HLA-B*27:05; [17]
  Kd: ≥ 20 µM
HLA-B*46:01; [17]
  Kd: ≥ 20 µM
HLA-C*05:01
  Kd: 0.007 µM
HLA-B*44:02; [17]
  Kd: ≥ 20 µM
HLA-A*02:01 [12]; [17]
  Kd: 1.05 µM
HLA-A*02:11
  Kd: 0.071 µM
HLA-B*40:01; [17]
  Kd: ≥ 20 µM
